# Measured values from patent publication US20160377619A1 (published 2016).
# B1: anti-KRS scFv Biocon-K1 (scFv)
# scFv: EVQLLESGGGLVQPGGSLRLSCAASGFTFSNYAMSWVRQAPGKGLEWVSGISPSSGDTYYADSVKGRFTISRDNSKNTLYLQMNSLRAEDTAVYYCAKGVWWYHPLLFDYWGQGTLVTVSSGGGGSGGGGSGGGGSQSVLTQPPSASGTPGQRVTISCSGSSSNIGNNTVSWYQQLPGTAPKLLIYANSKRPSGVPDRFSGSKSGTSASLAISGLRSEDEADYYCGAWDSSLSGYVFGGGTKLTVL
# Biological target: lysyl-tRNA synthetase (KRS), recombinant (human, UniProt Q15046 1-597)
# Assay: SPR
# lysyl-tRNA synthetase (KRS), recombinant, sequence (Q15046 whole entry): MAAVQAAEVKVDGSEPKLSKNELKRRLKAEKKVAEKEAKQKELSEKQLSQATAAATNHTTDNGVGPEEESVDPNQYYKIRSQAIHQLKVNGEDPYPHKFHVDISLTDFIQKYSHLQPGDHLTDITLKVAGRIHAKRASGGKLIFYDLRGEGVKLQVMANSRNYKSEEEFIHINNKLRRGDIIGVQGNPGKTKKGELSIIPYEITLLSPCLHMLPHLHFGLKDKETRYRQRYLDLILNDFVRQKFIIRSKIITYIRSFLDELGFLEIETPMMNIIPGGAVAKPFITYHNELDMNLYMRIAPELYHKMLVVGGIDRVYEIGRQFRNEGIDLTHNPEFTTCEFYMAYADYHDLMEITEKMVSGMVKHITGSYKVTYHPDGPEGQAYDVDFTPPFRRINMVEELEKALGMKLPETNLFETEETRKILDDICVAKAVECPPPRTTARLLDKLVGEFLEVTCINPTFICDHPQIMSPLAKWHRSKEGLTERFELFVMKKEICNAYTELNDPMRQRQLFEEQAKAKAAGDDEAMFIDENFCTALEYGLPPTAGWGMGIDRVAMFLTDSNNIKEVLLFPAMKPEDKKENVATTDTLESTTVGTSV
binder,measurement,value
B1,Kd,110 nM
